Laboratory results taken from patent publication US20200239555A1 (STATEN BIOTECHNOLOGY B V, published 2020).

Columns and labels:
[1] = molecular target: T1, biotinylated native human ApoC3 (human, UniProt P02656 21-99, biotinylated (site not stated)); assay: SPR, IgG1 over biotinylated ApoC3 on SA chip, pH 7.4
T1 construct: also called biotinylated human ApoC3
Experimental: (§1) Biotinylated native human ApoC3 was captured on a streptavidin coated SPR chip (GE Healthcare, cat. nr. BR100032) at pH 7.4, in accordance with the method provided by Biacore, by injection of 20 μl 10 μg/ml biotinylated native human ApoC3 reaching the surface density of approximately 500 RU. 60 μL of test antibody in 1-50 nM range diluted in HBS-EP buffer (GE, cat # BR-1008-26; 0.010 M HEPES, 0.150M NaCl, 3 mM EDTA, 0.05% (v/v) surfactant P20, pH 7.4) was injected and passed through the flow cells at a flow rate of 30 μl/min, followed by an off-rate wash at pH7.4 for 5 min. After the dissociation, the flow cell surfaces were regenerated by injecting 10 μl of 10 mM NaOH/1 M NaCl and 10 μl of 10 mM glycine at pH1.5. The assay was repeated at pH5.5 using the same general protocol, where the running and sample dilution buffer was replaced by a HBS-EP buffer supplemented with citrate buffer to 10 mM final concentration and pH adjusted to 5.5.
(§2) The resulting sensorgrams were analyzed using the BIAevaluation 4.1 software using Langmuir 1:1 binding model to derive binding kinetics. Data was zero adjusted and the reference cell sensorgrams were subtracted. Sensorgrams were double referenced to no-analyte blank assay. Fitted parameters were considered not applicable if off-rate values were below the equipment's detection limit of kd: 1×10⁻⁶ 1/s.

[2] = molecular target: T1, biotinylated native human ApoC3; assay: SPR, IgG1 over biotinylated ApoC3 on SA chip, pH 5.5
Experimental: as §1, §2

[3] = molecular target: T1, biotinylated native human ApoC3; assay: SPR, IgG1 over biotinylated ApoC3 on SA chip
Experimental: as §1, §2

native human ApoC3 [4] = molecular target: T2, native human ApoC3 (human, UniProt P02656 21-99); assay: SPR, ApoC3 over captured IgG1
T2 construct: also called nhuApoC3; native huApoC3
T2 sequence (P02656 21-99): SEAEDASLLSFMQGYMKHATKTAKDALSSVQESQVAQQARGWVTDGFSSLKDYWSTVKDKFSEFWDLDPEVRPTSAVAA
Experimental: (§3) An inverted SPR assay was designed in which a test antibody was captured on an SPR chip, human ApoC3 protein was injected, and binding of ApoC3 to the antibody was measured. […] The immobilization was performed in accordance with the method provided by Biacore/GE using the NHS/EDC kit (Biacore AB, Cat.nr. BR-1000-50): after activation of the chip, a solution of 30 μg/ml of anti-human Fcγ antibody in 10 mM acetate buffer with pH of 5.0 was prepared and injected until the surface density reached approximately 10000 RU. The analytical cycle comprised the following steps:
(§4) The resulting sensorgrams were analyzed using the BIAevaluation 4.1 software using Langmuir 1:1 binding model to derive binding kinetics. Data was zero adjusted, the reference cell sensorgrams were subtracted and the no analyte blank assay was used for double referencing the sensorgrams corresponding to the analyte injections. The dissociation and association phase sensorgrams were fitted separately for the 4 different concentration curves. Sensorgrams were excluded from the fitting if maximum RU values reached were below the detection limit of the equipment (<5 RU), Biacore 3000 (Biacore AB).

native human ApoC3 [5] = molecular target: T2, native human ApoC3; assay: SPR, ApoC3 over captured IgG1, pH 5.5
Experimental: as §3, §4

native human ApoC3 [6] = molecular target: T2, native human ApoC3; assay: SPR, ApoC3 over captured IgG1, pH 7.4
Experimental: as §3, §4

T1 sequence (P02656 21-99): as above

Ka [1]	Kd [1]	koff [1]	kon [1]	Ka [2]	koff [2]	kon [2]	KD pH5.5/KD pH7.4 [3]	KD (nM) pH5.5/pH7.4 (native human ApoC3 [4])	Ka (native human ApoC3 [5])	koff (native human ApoC3 [5])	kon (native human ApoC3 [5])	Ka (native human ApoC3 [6])	koff (native human ApoC3 [6])	kon (native human ApoC3 [6])	Kd [2]	Kd (native human ApoC3 [6])	Binder
1.08e+10 M⁻¹	90 pM	3.37e-05 s⁻¹	364000 M⁻¹ s⁻¹	2.05e+08 M⁻¹	0.00321 s⁻¹	656000 M⁻¹ s⁻¹	52.7	2.36	1.71e+06 M⁻¹	0.0646 s⁻¹	111000 M⁻¹ s⁻¹	4.05e+06 M⁻¹	0.012 s⁻¹	48500 M⁻¹ s⁻¹	–	–	mAb7 (antibody, V domains shown, Produced as full length IgG1 (kappa) in ExpiCHO-S cells; also called humanized anti-ApoC3 antibody mAb7) VH: QLVESGGGLVQPGGSLRLSCAASGFTFSTYSMRWVRQAPGKGLEWVSSIHTGGGGTAYRDSVKGRFTISRDNAKNTLYLQMNNLRAEDTAIYYCVIAGYSDWGQGTLVTVSS VL: DIVMTQSPLSLPVTPGESASISCKTSQGLVHSDGKTYFYWFLQKPGQSPQQLIYQVSNRASGVPDRFSGSGSGTDFTLKISRVKAEDAGVYYCAHGTYYPHTFGQGTRLEIK
1.53e+10 M⁻¹	70 pM	1.49e-05 s⁻¹	228000 M⁻¹ s⁻¹	7.18e+09 M⁻¹	6.73e-05 s⁻¹	483000 M⁻¹ s⁻¹	2.12	1.07	2.91e+06 M⁻¹	0.0251 s⁻¹	73200 M⁻¹ s⁻¹	3.12e+06 M⁻¹	0.00655 s⁻¹	20400 M⁻¹ s⁻¹	140 pM	–	mAb12 (antibody, IgG1, V domains shown, Produced as full length IgG1 (kappa) in ExpiCHO-S cells; also called humanized anti-ApoC3 antibody mAb12) VH: QLVESGGGLVQPGGSLRLSCAASGFTFSTYSMRWVRQVPGKGLEWVSSIHTDAGGTAYRDSVKGRFTISRDNAKNTLYLQMNSLRPEDTAIYYCVIAGYSDWGQGTLVTVSS VL: DIVMTQSPLSLSVTPGEPASISCKTSQGLVHSDGKTYFYWFLQKPGQSPQQLIYQVSNRASGVPDRFTGSGSGTDFTLKISRVKAEDVGVYYCAHGTYYPHTFGQGTRLEIK
2.15e+10 M⁻¹	50 pM	2.33e-05 s⁻¹	503000 M⁻¹ s⁻¹	2.92e+09 M⁻¹	0.000276 s⁻¹	806000 M⁻¹ s⁻¹	7.37	4.12	3.89e+06 M⁻¹	0.0217 s⁻¹	84500 M⁻¹ s⁻¹	1.6e+07 M⁻¹	0.00616 s⁻¹	98700 M⁻¹ s⁻¹	340 pM	62000 pM	mAb17 (antibody, IgG1, V domains shown, Produced as full length IgG1 (kappa) in ExpiCHO-S cells; also called humanized anti-ApoC3 antibody mAb17) VH: QLVESGGGLVQPGGSLRLSCAASGFTFSTYSMRWVRQAPGKGLEWVSSIHTEAGGTAYRDSVKGRFTISRDNAKNTLYLQMNNLRAEDTAVYYCVIAGYSDWGQGTLVTVSS VL: DIVMTQSPLSLPVTPGEPASISCKTSQGLVHSGGKTYFYWFLQKPGQSPQQLIYQVSNRASGVPDRFTGSGSGTDFTLKISRVEAEDAGVYYCAQGTYYPHTFGQGTRLEIK
9.83e+09 M⁻¹	100 pM	2.41e-05 s⁻¹	237000 M⁻¹ s⁻¹	1.34e+09 M⁻¹	0.000367 s⁻¹	490000 M⁻¹ s⁻¹	7.34	1	4.13e+06 M⁻¹	0.0205 s⁻¹	84600 M⁻¹ s⁻¹	4.15e+06 M⁻¹	0.00772 s⁻¹	32100 M⁻¹ s⁻¹	750 pM	–	mAb8 (antibody, IgG1, V domains shown, Produced as full length IgG1 (kappa) in ExpiCHO-S cells; also called humanized anti-ApoC3 antibody mAb8) VH: QLVESGGGLVQPGGSLRLSCAASGFTFSTYSMRWVRQAPGKGLEWVSSIHTDAGGTAYRDSVKGRFTISRDNAKNTLYLQMNNLRAEDTAVYYCVIAGYSDWGQGTLVTVSS VL: DIVMTQSPLSLSVVPGEPASISCKTSQGLVHSDGKTYFYWFLQKPGQSPQQLIYQVSNRASGVPDRFSGSGSGTDFTLKISRVEAEDVGVYYCAHGTYYPHTFGQGTRLEIK
1.05e+10 M⁻¹	100 pM	2.12e-05 s⁻¹	221000 M⁻¹ s⁻¹	3.7e+09 M⁻¹	0.000113 s⁻¹	417000 M⁻¹ s⁻¹	2.82	1.77	2.99e+06 M⁻¹	0.0274 s⁻¹	82100 M⁻¹ s⁻¹	5.3e+06 M⁻¹	0.00601 s⁻¹	31900 M⁻¹ s⁻¹	–	–	mAb10 (antibody, IgG1, V domains shown, Produced as full length IgG1 (kappa) in ExpiCHO-S cells; also called humanized anti-ApoC3 antibody mAb10) VH: QLVESGGGLVQPGGSLRLSCAASGFTFSTYSMRWVRQVPGKGLEWVSSIHTEGGGTAYRDSVKGRFTISRDNAKNTLYLQMNNLRAEDTAVYYCVIAGYSDWGQGTLVTVSS VL: DIVMTQSPLSLSVVPGEPASISCKTSQGLVHSDGKTYFYWFLQKPGQSPQQLIYQVSNRASGVPDRFSGSGSGTDFTLKISRVEAEDVGVYYCAHGTYYPHTFGQGTRLEIK
6.71e+09 M⁻¹	150 pM	3.32e-05 s⁻¹	223000 M⁻¹ s⁻¹	1.32e+09 M⁻¹	0.000369 s⁻¹	486000 M⁻¹ s⁻¹	5.09	2.33	1.85e+06 M⁻¹	0.0467 s⁻¹	86300 M⁻¹ s⁻¹	4.31e+06 M⁻¹	0.00669 s⁻¹	28800 M⁻¹ s⁻¹	760 pM	–	mAb9 (antibody, IgG1, V domains shown, Produced as full length IgG1 (kappa) in ExpiCHO-S cells; also called humanized anti-ApoC3 antibody mAb9) VH: QLVESGGGLVQPGGSLRLSCAASGFTFSTYSMRWVRQAPGKGLEWVSSIHTDAGGTAYRDSVKGRFTISRDNAKNTLYLQMNNLRAEDTAVYYCVIAGYSDWGQGTLVTVSS VL: DIVMTQSPLSLSVTPGEPASISCKTSQGLVHSDGKTYFYWFLQKPGQSPQQLIYQVSNRASGVPDRFSGSGSGTDFTLKISRVEAEDVGVYYCAHGTYYPHTFGQGTRLEIK
2.21e+10 M⁻¹	50 pM	2.9e-05 s⁻¹	640000 M⁻¹ s⁻¹	2.4e+09 M⁻¹	0.000296 s⁻¹	710000 M⁻¹ s⁻¹	9.21	4.42	6.37e+06 M⁻¹	0.0198 s⁻¹	127000 M⁻¹ s⁻¹	2.82e+07 M⁻¹	0.00463 s⁻¹	130000 M⁻¹ s⁻¹	420 pM	36000 pM	mAb19 (antibody, IgG1, V domains shown, Produced as full length IgG1 (kappa) in ExpiCHO-S cells; also called humanized anti-ApoC3 antibody mAb19) VH: QLVESGGGLVQPGGSLRLSCAASGFTFSTYSMRWVRQAPGKGLEWVSSIHTDAGGTAYRDSVKGRFTISRDNAKNTLYLQMNNLRPEDTAVYYCVIAGYSDWGQGTLVTVSS VL: DIVMTQSPGSLSVTPGEPASISCKTSQGLVHSGGKTYFYWFLQKPGQSPQQLIYQVSNRASGVPDRFTGSGSGTDFTLKISGVEAEDAGVYYCAQGTYYPHTFGQGTRLEIK
5.77e+09 M⁻¹	170 pM	3.8e-05 s⁻¹	219000 M⁻¹ s⁻¹	3.02e+09 M⁻¹	0.000147 s⁻¹	445000 M⁻¹ s⁻¹	1.91	3.9	1.99e+06 M⁻¹	0.0405 s⁻¹	80500 M⁻¹ s⁻¹	7.73e+06 M⁻¹	0.00523 s⁻¹	40400 M⁻¹ s⁻¹	330 pM	–	mAb11 (antibody, IgG1, V domains shown, Produced as full length IgG1 (kappa) in ExpiCHO-S cells; also called humanized anti-ApoC3 antibody mAb11) VH: QLVESGGGLVQPGGSLRLSCAASGFTFSTYSMRWVRQVPGKGLEWVSSIHTEGGGTAYRDSVKGRFTISRDNAKNTLYLQMNNLRAEDTAVYYCVIAGYSDWGQGTLVTVSS VL: DIVMTQSPLSLSVTPGEPASISCKTSQGLVHSDGKTYFYWFLQKPGQSPQQLIYQVSNRASGVPDRFSGSGSGTDFTLKISRVEAEDVGVYYCAHGTYYPHTFGQGTRLEIK
